PMC10315472

Experiments:
AMSIN (actinomyces) = assay: SPR
[1] = target: emorisin (Emergomyces orientalis); assay: SPR

Substance	Kd (AMSIN (actinomyces)) [nM]	koff (AMSIN (actinomyces)) [s⁻¹]	kon (AMSIN (actinomyces)) [M⁻¹ s⁻¹]	Kd [1] [nM]	koff [1] [s⁻¹]	kon [1] [M⁻¹ s⁻¹]
Spike protein of the SARS-CoV-2 Omicron variant (from UniProt P0DTC2) (natural protein)	57.9	–	–	–	–	–
αRBD (from UniProt P0DTC2) (domain or fragment)	37.4	–	–	–	–	–
βRBD (from UniProt P0DTC2 319-541) (domain or fragment)	310	0.00536	17300	49.5	0.00561	11400
γRBD (from UniProt P0DTC2 319-541) (domain or fragment)	607	0.00545	8970	–	–	–
δRBD (from UniProt P0DTC2 319-541) (domain or fragment)	76.6	0.0038	49600	31.6	0.00202	64000
ζRBD (from UniProt P0DTC2) (domain or fragment)	1450	–	–	–	–	–
